The values that follow are results of earlier work, collected in article PMC7076691.

For orientation: Kd means the constant that tells how readily two partners part at equilibrium.

This data set addresses Bfd (Pseudomonas aeruginosa) (UniProt Q9HY80).
Chain of UniProt Q9HY80 (Q9HY80 whole entry): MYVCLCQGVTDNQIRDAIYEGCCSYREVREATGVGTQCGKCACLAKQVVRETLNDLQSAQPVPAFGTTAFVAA

In the case of BfrB (from UniProt Q9HY79), the equilibrium dissociation constant (Kd) is 3000 nM.
